The experiment has as its target T1, FcγRIIb extracellular domain with C-terminal His tag (human, UniProt P31994 43-217).
T1 construct: extracellular domain; also called FcgRIIb; 2b
T1 sequence (looked up): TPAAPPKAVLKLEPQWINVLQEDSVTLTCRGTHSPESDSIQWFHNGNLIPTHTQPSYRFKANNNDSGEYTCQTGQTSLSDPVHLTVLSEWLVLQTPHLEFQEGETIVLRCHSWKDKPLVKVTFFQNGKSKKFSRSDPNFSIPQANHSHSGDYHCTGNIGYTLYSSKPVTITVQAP
In words: SPR (Biacore), relative binding. As to the method:
Analysis of interaction between objective antibody and the FcγR was carried out using Biacore T100 (GE Healthcare). HBS-EP+ (GE Healthcare) was used as the running buffer, and the measurement temperature was set to 25° C. Chips produced by immobilizing the antigen peptide by the amine coupling method to a Series S Sencor Chip CM5 (GE Healthcare), or alternatively, chips produced by allowing preliminarily biotinylated antigen peptides to interact with and immobilize onto a Series S Sensor Chip SA (certified) (GE Healthcare) were used. Antibodies of interest were captured onto an antigen peptide-immobilized chip, and allowed to interact to each FcγR diluted with running buffer. To regenerate and repeatedly use the chip, the antibodies captured on the chip were washed off by reacting 10 mM glycine-HCl, pH 1.5.
On the technique in general: In SPR one partner is held on a chip, and binding of the other changes the refractive index at the surface.

B1: GpH7-B3 variant T335_15Y/GpL16-k0 (antibody, human IgG1, kappa)
heavy: not shown
light: DIVMTQSPLSLPVTPGEPASISCQASESLVHSNRNTYLHWYLQKPGQSPQLLIYKVSNRFSGVPDRFSGSGSGTDFTLKISRVEAEDVGVYYCSQNTHVPPTFGQGTKVEIERTVAAPSVFIFPPSDEQLKSGTASVVCLLNNFYPREAKVQWKVDNALQSGNSQESVTEQDSKDSTYSLSSTLTLSKADYEKHKVYACEVTHQGLSSPVTKSFNRGEC
notes: also called Ho Ab T335_15Y
Regarding B1, the Ho/Con_2b was 104 % of HoCon Ab GpH7-B3/GpL16-k0.

B2: GpH7-A5/GpH7-B3 variant G237_04F/GpL16-k0 (antibody, human IgG1, kappa)
heavy 1: not shown
heavy 2: not shown
light: B1 light
notes: also called He Ab G237_04F
In the case of B2, the He/Con_2b was 149 % of HeCon Ab GpH7-A5/GpH7-B3/GpL16-k0.

B3: GpH7-B3 variant S267_06M/GpL16-k0 (antibody, human IgG1, kappa)
heavy: not shown
light: B1 light
notes: also called Ho Ab S267_06M
B3: the Ho/Con_2b was 187 % of HoCon Ab GpH7-B3/GpL16-k0.

B4: GpH7-B3 variant S239_06M/GpL16-k0 (antibody, human IgG1, kappa)
heavy: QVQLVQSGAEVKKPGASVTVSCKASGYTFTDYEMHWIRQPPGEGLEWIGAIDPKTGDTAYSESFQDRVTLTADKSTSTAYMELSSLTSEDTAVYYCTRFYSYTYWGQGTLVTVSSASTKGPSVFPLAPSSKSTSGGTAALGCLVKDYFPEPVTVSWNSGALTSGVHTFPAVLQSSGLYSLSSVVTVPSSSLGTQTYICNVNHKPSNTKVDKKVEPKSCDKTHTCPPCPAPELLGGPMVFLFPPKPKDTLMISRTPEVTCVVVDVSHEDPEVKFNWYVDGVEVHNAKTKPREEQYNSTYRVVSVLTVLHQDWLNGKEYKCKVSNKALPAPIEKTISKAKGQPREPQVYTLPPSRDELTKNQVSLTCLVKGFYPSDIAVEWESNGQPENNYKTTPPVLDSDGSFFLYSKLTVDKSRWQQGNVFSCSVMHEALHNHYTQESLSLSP
light: B1 light
notes: also called Ho Ab S239_06M
B4: the Ho/Con_2b is 84.3 % of HoCon Ab GpH7-B3/GpL16-k0.

B5: GpH7-B3 variant T335_13S/GpL16-k0 (antibody, human IgG1, kappa)
heavy: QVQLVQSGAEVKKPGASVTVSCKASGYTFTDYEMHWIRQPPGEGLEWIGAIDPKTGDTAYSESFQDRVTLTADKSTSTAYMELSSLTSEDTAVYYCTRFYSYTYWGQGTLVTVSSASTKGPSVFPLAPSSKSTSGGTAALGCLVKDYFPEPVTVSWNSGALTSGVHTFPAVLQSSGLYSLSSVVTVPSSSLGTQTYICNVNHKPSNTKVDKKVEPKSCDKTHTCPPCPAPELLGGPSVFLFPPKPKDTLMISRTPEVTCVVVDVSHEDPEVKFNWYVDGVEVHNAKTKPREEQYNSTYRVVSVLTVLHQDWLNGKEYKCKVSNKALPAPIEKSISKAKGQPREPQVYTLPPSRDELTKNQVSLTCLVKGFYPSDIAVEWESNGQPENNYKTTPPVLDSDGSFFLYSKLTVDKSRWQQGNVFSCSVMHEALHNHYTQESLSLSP
light: B1 light
notes: also called Ho Ab T335_13S
As to B5, the Ho/Con_2b is 95.2 % of HoCon Ab GpH7-B3/GpL16-k0.

B6: GpH7-A5/GpH7-B3 variant H268_03V/GpL16-k0 (antibody, human IgG1, kappa)
heavy 1: not shown
heavy 2: not shown
light: B1 light
notes: also called He Ab H268_03V
In the case of B6, the He/Con_2b was 114 % of HeCon Ab GpH7-A5/GpH7-B3/GpL16-k0.

B7: GpH7-A5/GpH7-B3 variant G237_10E/GpL16-k0 (antibody, human IgG1, kappa)
heavy 1: not shown
heavy 2: not shown
light: B1 light
notes: also called He Ab G237_10E
Turning to B7, the He/Con_2b is 114 % of HeCon Ab GpH7-A5/GpH7-B3/GpL16-k0.

B8: GpH7-A5/GpH7-B3 variant H268_15Y/GpL16-k0 (antibody, human IgG1, kappa)
heavy 1: not shown
heavy 2: not shown
light: B1 light
notes: also called He Ab H268_15Y
B8: the He/Con_2b is 106 % of HeCon Ab GpH7-A5/GpH7-B3/GpL16-k0.

B9: GpH7-A5/GpH7-B3 variant I336_06M/GpL16-k0 (antibody, human IgG1, kappa)
heavy 1: not shown
heavy 2: not shown
light: B1 light
notes: also called He Ab I336_06M
Regarding B9, the He/Con_2b is 101 % of HeCon Ab GpH7-A5/GpH7-B3/GpL16-k0.

B10: GpH7-B3 variant S337_15Y/GpL16-k0 (antibody, human IgG1, kappa)
heavy: not shown
light: B1 light
notes: also called Ho Ab S337_15Y
In the case of B10, the Ho/Con_2b is 93.4 % of HoCon Ab GpH7-B3/GpL16-k0.

B11: GpH7-B3 variant S324_06M/GpL16-k0 (antibody, human IgG1, kappa)
heavy: not shown
light: B1 light
notes: also called Ho Ab S324_06M
As to B11, the Ho/Con_2b was 104 % of HoCon Ab GpH7-B3/GpL16-k0.

B12: GpH7-B3 variant S298_06M/GpL16-k0 (antibody, human IgG1, kappa)
heavy: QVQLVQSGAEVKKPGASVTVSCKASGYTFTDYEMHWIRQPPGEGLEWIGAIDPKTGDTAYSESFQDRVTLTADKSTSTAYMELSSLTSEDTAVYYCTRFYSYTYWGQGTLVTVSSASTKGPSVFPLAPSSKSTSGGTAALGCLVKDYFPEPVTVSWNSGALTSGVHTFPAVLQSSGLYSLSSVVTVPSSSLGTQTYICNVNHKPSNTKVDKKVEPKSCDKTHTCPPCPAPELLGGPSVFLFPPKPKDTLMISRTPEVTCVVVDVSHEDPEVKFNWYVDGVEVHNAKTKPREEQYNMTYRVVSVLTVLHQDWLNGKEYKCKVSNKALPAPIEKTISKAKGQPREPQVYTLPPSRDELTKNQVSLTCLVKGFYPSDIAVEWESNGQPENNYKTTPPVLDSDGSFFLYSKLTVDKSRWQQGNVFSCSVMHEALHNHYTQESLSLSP
light: B1 light
notes: also called Ho Ab S298_06M
For B12, the Ho/Con_2b is 101 % of HoCon Ab GpH7-B3/GpL16-k0.

B13: GpH7-B3 variant T335_19Q/GpL16-k0 (antibody, human IgG1, kappa)
heavy: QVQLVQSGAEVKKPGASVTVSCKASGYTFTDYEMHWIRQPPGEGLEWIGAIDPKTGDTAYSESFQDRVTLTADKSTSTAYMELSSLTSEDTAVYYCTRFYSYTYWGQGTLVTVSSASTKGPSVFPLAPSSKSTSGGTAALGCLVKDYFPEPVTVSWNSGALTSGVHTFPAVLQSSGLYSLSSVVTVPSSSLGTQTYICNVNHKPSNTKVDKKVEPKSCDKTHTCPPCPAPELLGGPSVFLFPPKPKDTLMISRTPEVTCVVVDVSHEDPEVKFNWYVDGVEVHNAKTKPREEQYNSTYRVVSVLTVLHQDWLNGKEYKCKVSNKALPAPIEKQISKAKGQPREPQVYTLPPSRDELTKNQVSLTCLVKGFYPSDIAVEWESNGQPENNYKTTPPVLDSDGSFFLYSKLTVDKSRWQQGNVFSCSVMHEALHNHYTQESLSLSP
light: B1 light
notes: also called Ho Ab T335_19Q
With B13, the Ho/Con_2b was 97.3 % of HoCon Ab GpH7-B3/GpL16-k0.

B14: GpH7-B3 variant P331_10E/GpL16-k0 (antibody, human IgG1, kappa)
heavy: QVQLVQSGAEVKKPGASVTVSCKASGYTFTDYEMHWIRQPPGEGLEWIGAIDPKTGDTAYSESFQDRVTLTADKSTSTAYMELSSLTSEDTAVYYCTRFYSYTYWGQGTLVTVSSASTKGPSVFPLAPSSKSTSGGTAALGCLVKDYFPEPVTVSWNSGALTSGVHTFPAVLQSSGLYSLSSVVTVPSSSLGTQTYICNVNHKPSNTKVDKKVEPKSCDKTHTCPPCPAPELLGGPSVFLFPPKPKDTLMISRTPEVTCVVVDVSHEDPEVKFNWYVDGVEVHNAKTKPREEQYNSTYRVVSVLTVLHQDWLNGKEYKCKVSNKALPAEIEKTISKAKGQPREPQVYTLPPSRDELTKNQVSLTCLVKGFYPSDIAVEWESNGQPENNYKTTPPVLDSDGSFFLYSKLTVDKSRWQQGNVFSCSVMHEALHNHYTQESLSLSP
light: B1 light
notes: also called Ho Ab P331_10E
On to B14, for which the Ho/Con_2b was 92.3 % of HoCon Ab GpH7-B3/GpL16-k0.

B15: GpH7-B3 variant S337_20W/GpL16-k0 (antibody, human IgG1, kappa)
heavy: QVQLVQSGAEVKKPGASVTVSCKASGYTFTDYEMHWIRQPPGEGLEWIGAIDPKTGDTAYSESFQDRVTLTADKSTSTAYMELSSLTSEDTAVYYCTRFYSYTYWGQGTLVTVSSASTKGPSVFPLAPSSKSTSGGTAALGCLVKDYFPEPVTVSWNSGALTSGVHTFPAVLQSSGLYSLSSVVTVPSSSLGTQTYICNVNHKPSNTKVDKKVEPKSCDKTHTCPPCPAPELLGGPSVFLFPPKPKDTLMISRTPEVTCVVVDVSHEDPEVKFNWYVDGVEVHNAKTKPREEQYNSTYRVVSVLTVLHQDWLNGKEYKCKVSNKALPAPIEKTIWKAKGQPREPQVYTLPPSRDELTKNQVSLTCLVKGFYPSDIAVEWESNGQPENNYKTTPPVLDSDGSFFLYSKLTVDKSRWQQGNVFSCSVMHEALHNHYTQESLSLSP
light: B1 light
notes: also called Ho Ab S337_20W
As for B15, the Ho/Con_2b was 99.6 % of HoCon Ab GpH7-B3/GpL16-k0.

B16: GpH7-B3 variant S239_03V/GpL16-k0 (antibody, human IgG1, kappa)
heavy: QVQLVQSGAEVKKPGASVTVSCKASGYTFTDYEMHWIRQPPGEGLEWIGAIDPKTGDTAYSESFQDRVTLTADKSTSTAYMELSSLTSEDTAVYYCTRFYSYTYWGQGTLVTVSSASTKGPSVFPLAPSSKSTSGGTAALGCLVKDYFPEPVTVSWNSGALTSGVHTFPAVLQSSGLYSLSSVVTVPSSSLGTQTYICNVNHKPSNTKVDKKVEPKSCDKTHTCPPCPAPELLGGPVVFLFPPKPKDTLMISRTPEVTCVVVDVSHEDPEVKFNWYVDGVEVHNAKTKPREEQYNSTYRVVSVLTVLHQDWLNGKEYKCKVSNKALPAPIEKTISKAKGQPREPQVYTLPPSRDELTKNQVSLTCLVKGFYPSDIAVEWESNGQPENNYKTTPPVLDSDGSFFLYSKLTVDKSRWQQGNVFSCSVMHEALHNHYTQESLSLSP
light: B1 light
notes: also called Ho Ab S239_03V
With B16, the Ho/Con_2b is 108 % of HoCon Ab GpH7-B3/GpL16-k0.

B17: GpH7-B3 variant S337_07I/GpL16-k0 (antibody, human IgG1, kappa)
heavy: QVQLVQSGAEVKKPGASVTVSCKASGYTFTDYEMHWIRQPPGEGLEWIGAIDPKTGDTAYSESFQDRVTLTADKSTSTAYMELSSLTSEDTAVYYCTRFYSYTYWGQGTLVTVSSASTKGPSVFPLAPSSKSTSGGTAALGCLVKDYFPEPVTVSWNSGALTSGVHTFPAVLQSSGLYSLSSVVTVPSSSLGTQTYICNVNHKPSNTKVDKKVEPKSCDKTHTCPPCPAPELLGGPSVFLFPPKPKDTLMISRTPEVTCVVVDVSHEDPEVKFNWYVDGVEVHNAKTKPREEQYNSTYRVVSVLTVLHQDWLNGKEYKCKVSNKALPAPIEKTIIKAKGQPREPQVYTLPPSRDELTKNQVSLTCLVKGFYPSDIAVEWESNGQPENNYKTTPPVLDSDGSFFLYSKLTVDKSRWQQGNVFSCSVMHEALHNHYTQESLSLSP
light: B1 light
notes: also called Ho Ab S337_07I
Regarding B17, the Ho/Con_2b was 96.6 % of HoCon Ab GpH7-B3/GpL16-k0.

B18: GpH7-B3 variant T335_20W/GpL16-k0 (antibody, human IgG1, kappa)
heavy: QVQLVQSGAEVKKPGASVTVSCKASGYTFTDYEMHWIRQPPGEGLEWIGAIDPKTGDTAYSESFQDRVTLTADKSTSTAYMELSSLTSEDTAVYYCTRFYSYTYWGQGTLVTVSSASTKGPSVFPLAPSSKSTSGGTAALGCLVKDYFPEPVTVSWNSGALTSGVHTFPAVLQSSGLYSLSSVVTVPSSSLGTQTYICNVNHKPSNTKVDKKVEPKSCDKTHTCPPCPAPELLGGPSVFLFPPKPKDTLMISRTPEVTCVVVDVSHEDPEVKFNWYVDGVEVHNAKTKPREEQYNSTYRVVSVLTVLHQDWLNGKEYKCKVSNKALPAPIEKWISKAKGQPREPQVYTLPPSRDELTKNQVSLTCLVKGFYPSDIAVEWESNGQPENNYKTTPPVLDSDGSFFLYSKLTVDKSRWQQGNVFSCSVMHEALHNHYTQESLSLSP
light: B1 light
notes: also called Ho Ab T335_20W
B18: the Ho/Con_2b was 94.4 % of HoCon Ab GpH7-B3/GpL16-k0.

B19: GpH7-A5/GpH7-B3 variant A327_07I/GpL16-k0 (antibody, human IgG1, kappa)
heavy 1: not shown
heavy 2: not shown
light: B1 light
notes: also called He Ab A327_07I
On to B19, for which the He/Con_2b is 127 % of HeCon Ab GpH7-A5/GpH7-B3/GpL16-k0.

B20: GpH7-A5/GpH7-B3 variant G237_20W/GpL16-k0 (antibody, human IgG1, kappa)
heavy 1: not shown
heavy 2: not shown
light: B1 light
notes: also called He Ab G237_20W
As to B20, the He/Con_2b is 193 % of HeCon Ab GpH7-A5/GpH7-B3/GpL16-k0.

B21: GpH7-A5/GpH7-B3 variant A327_18N/GpL16-k0 (antibody, human IgG1, kappa)
heavy 1: not shown
heavy 2: not shown
light: B1 light
notes: also called He Ab A327_18N
In the case of B21, the He/Con_2b was 113 % of HeCon Ab GpH7-A5/GpH7-B3/GpL16-k0.

B22: GpH7-A5/GpH7-B3 variant G237_09D/GpL16-k0 (antibody, human IgG1, kappa)
heavy 1: not shown
heavy 2: not shown
light: B1 light
notes: also called He Ab G237_09D
B22: the He/Con_2b is 223 % of HeCon Ab GpH7-A5/GpH7-B3/GpL16-k0.

B23: GpH7-A5/GpH7-B3 variant G237_13S/GpL16-k0 (antibody, human IgG1, kappa)
heavy 1: not shown
heavy 2: not shown
light: B1 light
notes: also called He Ab G237_13S
As to B23, the He/Con_2b is 111 % of HeCon Ab GpH7-A5/GpH7-B3/GpL16-k0.

B24: GpH7-B3 variant Y296_20W/GpL16-k0 (antibody, human IgG1, kappa)
heavy: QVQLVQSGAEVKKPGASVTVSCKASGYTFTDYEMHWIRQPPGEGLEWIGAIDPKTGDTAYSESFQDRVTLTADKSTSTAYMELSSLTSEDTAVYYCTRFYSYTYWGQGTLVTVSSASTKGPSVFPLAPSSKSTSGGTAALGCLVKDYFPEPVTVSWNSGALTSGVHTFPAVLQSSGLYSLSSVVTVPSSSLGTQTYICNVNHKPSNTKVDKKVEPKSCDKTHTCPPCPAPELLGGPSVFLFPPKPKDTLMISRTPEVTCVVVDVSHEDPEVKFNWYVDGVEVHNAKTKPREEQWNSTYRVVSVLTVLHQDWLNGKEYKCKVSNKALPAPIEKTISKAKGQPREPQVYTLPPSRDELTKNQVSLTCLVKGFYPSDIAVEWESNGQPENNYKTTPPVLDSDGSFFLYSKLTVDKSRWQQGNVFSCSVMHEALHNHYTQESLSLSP
light: B1 light
notes: also called Ho Ab Y296_20W
As for B24, the Ho/Con_2b was 103 % of HoCon Ab GpH7-B3/GpL16-k0.

B25: GpH7-A5/GpH7-B3 variant G237_18N/GpL16-k0 (antibody, human IgG1, kappa)
heavy 1: not shown
heavy 2: not shown
light: B1 light
notes: also called He Ab G237_18N
Turning to B25, the He/Con_2b was 180 % of HeCon Ab GpH7-A5/GpH7-B3/GpL16-k0.

B26: GpH7-B3 variant S337_18N/GpL16-k0 (antibody, human IgG1, kappa)
heavy: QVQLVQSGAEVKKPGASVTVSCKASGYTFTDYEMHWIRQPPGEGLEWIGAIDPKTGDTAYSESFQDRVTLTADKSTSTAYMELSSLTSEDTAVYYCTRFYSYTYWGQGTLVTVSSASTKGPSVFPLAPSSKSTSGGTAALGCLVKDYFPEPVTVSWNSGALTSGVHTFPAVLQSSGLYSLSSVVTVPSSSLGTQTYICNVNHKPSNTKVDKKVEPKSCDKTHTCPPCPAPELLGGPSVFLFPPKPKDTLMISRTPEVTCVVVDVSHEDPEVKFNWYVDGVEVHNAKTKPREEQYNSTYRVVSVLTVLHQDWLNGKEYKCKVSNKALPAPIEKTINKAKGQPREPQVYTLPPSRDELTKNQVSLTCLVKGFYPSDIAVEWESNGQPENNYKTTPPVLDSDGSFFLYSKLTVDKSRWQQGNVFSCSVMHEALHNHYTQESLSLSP
light: B1 light
notes: also called Ho Ab S337_18N
For B26, the Ho/Con_2b was 98 % of HoCon Ab GpH7-B3/GpL16-k0.

These data come from patent publication US20150344570A1 (published 2015).
